In patent US12571800B2, “Means and methods for treating angiogenesis-related diseases” (Heidelberg Biotech GmbH, priority 2011, dated 2026):

Columns and labels:
solid tumors = conditions: cited from earlier work
[1] = tested on: human umbilical vein endothelial cells (HUVECs); conditions: in vitro; cited from earlier work
rat aortic rings = conditions: in vitro; cited from earlier work
[2] = tested on: chicken chorioallantoic membrane; conditions: CAM assay; cited from earlier work
fibronectin [3] = target: T1, fibronectin (Homo sapiens, UniProt P02751); assay: Elisa, binding to fibronectin; conditions: proteins coated at 10 μg/ml; fibronectin as ligand at the same concentration
Procedure: Coating of proteins were done in PBS at concentration of 10 μg/ml. Fibronectin served as a ligand at the same concentration. All buffers contained 2% BSA, 0.1% Tween-20.
Three protein constructs human Fc (control), dimeric human (h)Fc-Endostatin and hFc-VEGF were employed. […] Artificial endostatin dimer was generated by introducing a single mutation in amino acid position 7 of endostatin (changing glutamine to cysteine) in the recombinant Fc-endostatin. Upon digestion of this mutant protein by enterokinase, endostatin dimer is produced, linked by a disulfide bond (Kuo et al., loc. cit.).

fibronectin [4] = target: T1, fibronectin; assay: Biacore (SPR) equilibrium binding constants to fibronectin; conditions: fibronectin 0.78 nM-100 nM over immobilized protein; values only in FIG. 1C
Procedure: Fibronectin samples were prepared by serial dilution into 0.01 M Hepes, pH 7.4, 0.15 M NaCl, 0.05% Surfactant containing 1 mg/ml BSA in the range 0.78 nM-100 nM and flowed over control and derivatized surfaces for three minutes at a flow-rate of 60 μl/min. Dissociation phases were monitored for 5 minutes. Zero concentration blank buffer cycles were included as negative control samples. Sensor surfaces were regenerated using a 1 minute injection of 1 M ethanolamine, pH 8.5 following each interaction analysis cycle. Non-specific binding effects to sensor surface CM4 were not observed. Calculated ka, kd and KD are shown. Different curves correspond to different concentrations of fibronectin.
1.3 Surface Plasmon Resonance (SPR) binding assays. This analysis provides for a unique method for measuring equilibrium constants between two binding partners. It is able to evaluate the kinetics of an interaction by recording the rates of complex formation (ka) and dissociation (kd) followed by employing a software which determines the values of these two parameters. Equilibrium constant (KD) is obtained by calculating the ration of kd/ka Human VEGF (R&D), endostatin, endostatin dimer and human NC-1 (hNC-1) were diluted to 50 μg/ml in 10 mM Sodium Acetate, pH 5.5 and immobilized onto series S sensor chip(s) CM4 via a standard N-ethyl-N′-(dimethyl-aminopropyl)carbodiimide/N-hydroxysuccinimide (EDC/NHS) amine coupling procedures. Control surfaces were prepared similarly without protein derivatization and utilized as a reference surface for compound binding experiments.
Binding measurements were performed using a Biacore™ (GE Healthcare, Uppsala, Sweden) instrument which employs surface plasmon resonance to detect and monitor molecular interactions.
Data analysis was carried out using Biacore T100 evaluation software v1.1.1. Data were prepared by subtraction of reference surface data and blank buffer sample data, a procedure commonly referred to as ‘double referencing’ and fitted to a 1:1 langmuir binding model.
In order to measure equilibrium binding constants for the above proteins, a Biacore system was employed. […] Fc-endostatin imposes a dimeric structure on the two molecules of endostatin at the C-terminus of Fc dimer.

HUVECs [5] = assay: Immunofluorescence, endothelial cell surface binding; assay type: cell-based, human
Procedure: HUVECs were incubated with Fc-endostatin and detected with Alexa 488 IgG or human NC-1 (hNC-1) trimer and detected by anti-His tag monoclonal antibody.
1.5 Immunocytochemistry. HUVECs were plated and grown on cover slips. […] The slips were incubated in the blocking buffer (2% BSA PBS) for 30 min. For hFc-endostatin or hFc groups, the slides were incubated with Alexa 488 antihuman IgG for imaging. For hNC-1 or IgG groups, the slides were incubated with mouse anti-His-tag monoclonal antibody, then probed by Alexa 488 anti-mouse IgG. Anti-fibronectin antibody (R&D) was used for secondary staining for all slides and probed by Alexa 594 anti-goat IgG and imaged by confocal-microscopy. DAPI counterstaining of nuclei is shown in blue.
2.3 Binding of oligomeric hFc-endostatin and hNC-1 to HUVECs. Immunoflourescence technique was employed to detect endothelial cell surface binding of oligomeric endostatin and NC-1.

HUVECs [6] = assay: Endothelial cell migration assay (transwell, VEGF-induced); assay type: cell-based, human
Procedure: HUVECs were plated into 24-well inserts of transwell plate in duplication. The lower chamber was filled with serum free medium containing 100 ng/ml […] VEGF (rhVEGF) plus different concentrations of hNC-1. After incubation for 16 h at 37° C., the cells were fixed and stained. […] Endostatin monomer, dimer and NC-1 were used for comparison (c).
1.7 Endothelial cell migration assay. HUVECs were washed by serum free EBM medium twice, re-suspended at 5×10^4 cells/well in 0.6 ml of medium, were plated into 24-well inserts (Coring, 8 μm pore size) in duplicates. The lower chamber was filled with 0.6 ml of serum free EBM medium containing 100 ng/ml […] (rh)VEGF (R&D) After incubation for 16 h at 37° C., the cells were fixed by methanol and stained with eosin and hemotoxlin. Cells on the upper side of the transwell membrane were removed by cotton swab. Cells migrating to the lower side of membrane were counted.
2.4 hNC-1 inhibits endothelial cells migration. Endothelial cell migration is an important step in new blood vessel formation and tumor angiogenesis. To evaluate the effect of hNC-1 on endothelial cell migration, rhVEGF has been used to induce HUVECs migration in a transwell assay. The migration of cells has been monitored and quantified Cells migrating across the membrane were stained with blue-purple stain (FIG. 3B(a)) and counted.

[7] = tested on: human melanoma cancer cells (A2058); assay: A2058 human melanoma tumors in nude mice; assay type: in vivo
Procedure: 4-6 tumor-bearing nude mice in each group were subcutaneously (s.c.) treated with hNC-1 (100 μg/mouse once a day), clinical-grade endostatin (100 and 500 μg/mouse once a day) or PBS. Treatment was stopped prior to the development of necrosis. Sites of injection were away from tumors. Tumor sizes and the ratio of treated/control (T/C) is shown.
1.4 Animal and tumor models. All animal procedures were carried out in compliance with Children's Hospital Boston guidelines Protocols were approved by the Institutional Animal Care and Use Committee. Eight-week-old male (24-27 g) nude/nude mice (Massachusetts General Hospital, Boston, MA) were used. Mice were acclimated, caged in groups of five in a barrier care facility, and fed animal chow and water ad libitum. Animals were euthanized by CO2 inhalation. Human melanoma cell line A2058 was used for animal studies. A suspension of 2×10^6 tumor cells in 0.1 ml of PBS was injected subcutaneously (s.c.) into the dorsa of mice at the proximal midline. Mice were weighed and tumors were monitored twice a week in two diameters with digital calipers. Tumor volumes were determined using a^2×b×0.52 (where a is the shortest and b is the longest diameter). Tumors were allowed to grow to ˜100 mm^3 and mice were randomized. Treatment was by bolus s.c. injections. After experiments were completed, tumors and organs were excised and fixed in either 4% paraformaldehyde or were snap frozen. Four to six mice were treated with each group.
2.6 hNC-1 suppresses tumor growth in vivo. In order to compare anti-tumor activities of NC-1 and endostatin, nude mice bearing human melanoma cell line A2058 were employed. Two doses of clinical grade endostatin differing by 5-fold in concentration of protein (low and high doses) were used. […] It cannot be ruled out the possibility that injected NC-1 becomes degraded upon entering the circulation.

[8] = Stability in serum or cell culture media; assay type: in vitro ADME; conditions: longer periods of time, even at 4° C.
From the text: The invention also relates to a method for producing the protein oligomer or peptide oligomer or fusion protein of the invention, comprising (a) culturing a host cell comprising a nucleic acid encoding the protein oligomer or peptide oligomer or fusion protein of the invention, preferably under serum-free conditions, (b) obtaining from the host cell of step (a) the protein oligomer or peptide oligomer or fusion protein, and, optionally, (c) storing the protein oligomer or peptide oligomer or fusion protein, preferably under serum-free conditions. […] Therefore, it is advantageous to produce and keep the protein oligomer or peptide oligomer of the invention under serum-free conditions.
The earliest condition media employed for endostatin isolation was continuously kept at 4° C. for a long period of time (at least a month) prior to final purification step. Presence of fetal calf serum in the media can cause degradation of NC-1. Confirmation of this hypothesis was established by another group in the inventor's laboratory a year later, employing the same mouse tumor cell line (Wen et al., loc. cit.). […] Consequently, the earlier observation of an endostatin size protein being the only product following HPLC purification, strongly supports the inventor's hypothesis that NC-1 was completely digested to an endostatin size molecule after prolonged incubation at 4° C. […]

T1 sequence (P02751 32-2477): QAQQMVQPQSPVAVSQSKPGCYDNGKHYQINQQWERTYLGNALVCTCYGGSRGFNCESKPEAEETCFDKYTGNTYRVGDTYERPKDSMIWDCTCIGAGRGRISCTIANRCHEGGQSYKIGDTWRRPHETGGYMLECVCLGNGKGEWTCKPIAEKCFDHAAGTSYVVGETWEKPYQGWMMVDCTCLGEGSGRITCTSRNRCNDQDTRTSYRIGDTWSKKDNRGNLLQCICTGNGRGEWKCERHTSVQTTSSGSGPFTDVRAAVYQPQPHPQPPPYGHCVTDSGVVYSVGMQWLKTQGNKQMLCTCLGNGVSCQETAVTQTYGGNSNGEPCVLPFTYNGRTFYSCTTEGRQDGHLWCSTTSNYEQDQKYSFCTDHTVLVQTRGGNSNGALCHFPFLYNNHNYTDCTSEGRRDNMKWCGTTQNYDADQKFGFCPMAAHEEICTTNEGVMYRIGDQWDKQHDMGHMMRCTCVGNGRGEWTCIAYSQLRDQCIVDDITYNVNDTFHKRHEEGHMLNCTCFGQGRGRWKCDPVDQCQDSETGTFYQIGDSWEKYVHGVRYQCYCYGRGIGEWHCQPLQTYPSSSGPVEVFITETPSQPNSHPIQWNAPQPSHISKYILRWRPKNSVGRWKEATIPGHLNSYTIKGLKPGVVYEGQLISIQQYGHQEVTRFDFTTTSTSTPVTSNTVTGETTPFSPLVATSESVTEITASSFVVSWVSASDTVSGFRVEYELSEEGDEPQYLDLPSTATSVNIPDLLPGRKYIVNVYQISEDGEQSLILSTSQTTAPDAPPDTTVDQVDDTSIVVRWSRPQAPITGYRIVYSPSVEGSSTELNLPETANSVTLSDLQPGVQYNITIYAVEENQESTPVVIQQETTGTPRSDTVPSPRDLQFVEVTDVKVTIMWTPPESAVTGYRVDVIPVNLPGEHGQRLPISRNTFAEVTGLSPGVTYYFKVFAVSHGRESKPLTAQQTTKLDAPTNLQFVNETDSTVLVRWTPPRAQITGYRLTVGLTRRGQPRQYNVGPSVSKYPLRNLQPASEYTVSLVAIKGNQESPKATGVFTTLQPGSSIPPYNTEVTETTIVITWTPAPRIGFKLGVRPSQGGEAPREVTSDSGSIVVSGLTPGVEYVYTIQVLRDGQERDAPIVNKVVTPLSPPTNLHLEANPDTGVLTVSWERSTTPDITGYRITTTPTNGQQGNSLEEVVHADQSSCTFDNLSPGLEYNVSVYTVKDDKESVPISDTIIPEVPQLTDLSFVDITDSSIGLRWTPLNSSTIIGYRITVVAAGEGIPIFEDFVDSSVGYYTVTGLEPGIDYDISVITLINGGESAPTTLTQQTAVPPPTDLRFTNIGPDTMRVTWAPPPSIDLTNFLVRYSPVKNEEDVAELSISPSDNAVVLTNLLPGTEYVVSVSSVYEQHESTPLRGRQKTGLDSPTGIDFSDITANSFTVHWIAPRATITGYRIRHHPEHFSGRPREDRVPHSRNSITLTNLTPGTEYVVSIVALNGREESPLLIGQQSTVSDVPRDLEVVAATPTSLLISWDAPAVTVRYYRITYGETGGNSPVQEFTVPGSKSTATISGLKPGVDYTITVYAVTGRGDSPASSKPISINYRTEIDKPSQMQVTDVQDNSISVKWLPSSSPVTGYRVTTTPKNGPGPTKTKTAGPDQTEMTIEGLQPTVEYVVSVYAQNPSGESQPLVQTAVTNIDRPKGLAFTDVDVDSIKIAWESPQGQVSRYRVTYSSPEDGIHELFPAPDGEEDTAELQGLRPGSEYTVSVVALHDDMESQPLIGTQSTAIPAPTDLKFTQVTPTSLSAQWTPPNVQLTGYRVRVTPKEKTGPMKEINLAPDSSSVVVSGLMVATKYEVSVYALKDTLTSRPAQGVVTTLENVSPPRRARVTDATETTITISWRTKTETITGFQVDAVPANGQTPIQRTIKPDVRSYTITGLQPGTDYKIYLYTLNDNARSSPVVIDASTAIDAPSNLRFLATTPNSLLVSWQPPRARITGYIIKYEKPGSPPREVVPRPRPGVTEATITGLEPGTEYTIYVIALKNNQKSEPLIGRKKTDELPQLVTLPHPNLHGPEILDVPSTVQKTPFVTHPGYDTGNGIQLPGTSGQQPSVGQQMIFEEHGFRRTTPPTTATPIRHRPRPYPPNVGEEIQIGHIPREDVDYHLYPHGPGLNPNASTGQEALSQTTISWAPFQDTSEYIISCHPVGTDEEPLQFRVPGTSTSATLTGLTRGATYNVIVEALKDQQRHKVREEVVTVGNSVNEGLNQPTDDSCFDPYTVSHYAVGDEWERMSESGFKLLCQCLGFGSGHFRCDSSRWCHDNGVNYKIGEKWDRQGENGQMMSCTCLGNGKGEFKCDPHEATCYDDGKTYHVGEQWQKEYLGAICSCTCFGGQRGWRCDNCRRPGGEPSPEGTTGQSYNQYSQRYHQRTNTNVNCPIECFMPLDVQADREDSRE

B1: Endostar: recombinant human endostatin from Escherichia coli with an additional nine-amino acid sequence forming a his-tag (protein, UniProt P39060 1572-1754, looked up)
Endostatin: HSHRDFQPVLHLVALNSPLSGGMRGIRGADFQCFQQARAVGLAGTFRAFLSSRLQDLYSIVRRADRAAVPIVNLKDELLFPSWEALFSGSEGPLKPGARIFSFDGKDVLRHPTWPQKSVWHGSDPNGRRLTESYCETWRTEAPSATGQASSLLGGRLLGQSAASCHHAYIVLCIENSFMTASK
modifications: Endostatin nine-residue his-tag
Median time to tumor progression (solid tumors; 7.5 mg/m^2/day i.v. more than 7 days, with chemotherapy): 3.0 months | toxicity combined with chemotherapy (solid tumors; human, in vivo): tolerable | treatment related death (solid tumors; human, in vivo): No treatment related death | patients remaining stable (solid tumors; of 42 patients): twenty-one | patients with progressive disease (solid tumors; of 42 patients): nineteen | Median overall survival (solid tumors; with chemotherapy): 30.0 months | complete response (solid tumors; with chemotherapy): No complete response | one year survival rate (solid tumors; with chemotherapy): 81.0% | patients with partial response (solid tumors; with chemotherapy): Two of 42 | VEGF-stimulated proliferation, migration, and tube formation of HUVECs [1]: suppressed | microvessel sprouting from rat aortic rings (rat aortic rings): blocked microvessel sprouting | formation of new capillaries from pre-existing vessels [2]: inhibit the formation of new capillaries

B2: hNC-1: naturally occurring trimeric NC-1 domain of human collagen 18: association domain, hinge region and endostatin domain (protein)
chain: SGVRLWATRQAMLGQVHEVPEGWLIFVAEQEELYVRVQNGFRKVQLEARTPLPRGTDNEVAALQPPVVQLHDSNPYPRREHPHPTARPWRADDILASPPRLPEPQPYPGAPHHSSYVHLRPARPTSPPAHSHRDFQPVLHLVALNSPLSGGMRGIRGADFQCFQQARAVGLAGTFRAFLSSRLQDLYSIVRRADRAAVPIVNLKDELLFPSWEALFSGSEGPLKPGARIFSFDGKDVLRHPTWPQKSVWHGSDPNGRRLTESYCETWRTEAPSATGQASSLLGGRLLGQSAASCHHAYIVLCIENSFMTASK
modifications: left off: small tags and cut ends
notes: naturally occurring trimeric NC-1 domain of human collagen 18: association domain, hinge region and endostatin domain
binding to fibronectin (Elisa) (fibronectin [3]): bound fibronectin | equilibrium binding constant to fibronectin (Biacore) (fibronectin [4]): High affinity constants | binding to HUVECs (HUVECs [5]; cells cultured only for 24 hours): poor binding | binding to HUVECs (HUVECs [5]; incubation time prolonged to 72 hours): significant binding | anti-migratory potency among endostatin monomer, dimer and NC-1 (HUVECs [6]): most potent anti-migratory agent | VEGF-induced endothelial cell migration (HUVECs [6]; 100 ng/ml rhVEGF, 16 h): inhibited VEGF-induced endothelial cell migration | endothelial cell migration (HUVECs [6]; 100 and 200 ng/ml of hNC-1): less migration | dose effect on endothelial cell migration (HUVECs [6]; different concentrations of hNC-1): U-shaped curve | inhibition of tumor growth ([7]; end of experiment, s.c. once a day, hNC-1 100 μg/mouse, endostatin 100 and 500 μg/mouse): 67% | anti-tumor activity compared with endostatin ([7]; low dose of NC-1 vs 5-fold higher dose of endostatin): anti-tumor activity similar to high dose of endostatin | stability in serum or cell culture media [8]: susceptible to degradation
